{
  "source": "patent US4546077A",
  "about": "“Leucine dehydrogenase and a process for production thereof” (Unitika Ltd., priority 1982, dated 1985)",
  "proteins": {"B1": {"name": "leucine dehydrogenase obtained from Bacillus stearothermophilus (Geobacillus stearothermophilus) (protein)", "chain": "MELFKYMETYDYEQVLFCQDKESGLKAIIAIHDTTLGPALGGTRMWMYNSEEEALEDALRLARGMTYKNAAAGLNLGGGKTVIIGDPRKDKNEAMFRAFGRFIQGLNGRYITAEDVGTTVADMDIIYQETDYVTGISPEFGSSGNPSPATAYGVYRGMKAAAKEAFGSDSLEGKVVAVQGVGNVAYHLCRHLHEEGAKLIVTDINKEVVARAVEEFGAKAVDPNDIYGVECDIFAPCALGGIINDQTIPQLKAKVIAGSADNQLKEPRHGDIIHEMGIVYAPDYVINAGGVINVADELYGYNRERAMKKIEQIYDNIEKVFAIAKRDNIPTYVAADRMAEERIETMRKARSPFLQNGHHILSRRRAR", "notes": "the leucine dehydrogenase was obtained from Bacillus stearothermophilus; endogenous in cells; host or cells: Bacillus stearothermophilus (enzyme isolated and purified from the cultured bacteria)"}},
  "key": {"[1]": {"substrate": "CC(C)C[C@H](N)C(=O)O", "test": "Michaelis constants of leucine dehydrogenase", "assay_type": "biochemical", "settings": "other: purified leucine dehydrogenase from Bacillus stearothermophilus; pH 11.0; 55.0 °C", "procedure": "(§1) Next, physico-chemical properties of the thus obtained leucine dehydrogenase of the present invention are shown below, wherein the leucine dehydrogenase was obtained from Bacillus stearothermophilus.\n(§2) A solution mixture containing 1.25 mM NAD and 10 mM L-leucine in a […] glycine-KCl-KOH buffer solution having pH 11 was prepared. A suitable amount of a leucine dehydrogenase was added to the solution mixture and the increment of a reduced type NAD per unit time at 55° C. was measured as an increment of the absorbancy at 340 nm. The amount of the enzyme which made it possible to increase the absorbancy of 1μ mole of NADH at 340 nm per minute was set at 1 unit."}, "[2]": {"substrate": "NC(=O)c1ccc[n+]([C@@H]2O[C@H](COP(=O)([O-])OP(=O)(O)OC[C@H]3O[C@@H](n4cnc5c(N)ncnc54)[C@H](O)[C@@H]3O)[C@@H](O)[C@H]2O)c1", "test": "Michaelis constants of leucine dehydrogenase", "assay_type": "biochemical", "settings": "other: purified leucine dehydrogenase from Bacillus stearothermophilus; pH 11.0; 55.0 °C", "procedure": "as §1, §2"}},
  "data": [
    {"protein": "B1", "values": [
      {"measurement": "Km", "setting": "[1]", "value": 1.5, "unit": "mM"},
      {"measurement": "Km", "setting": "[2]", "value": 0.4, "unit": "mM"}
    ]}
  ]
}
